Results taken from article PMC12767347 (bioRxiv, 2025).
Several values for one entry are separate records, joined by “and”; a condition that tells them apart may be missing. Identical values can stand only once. Like-named read-outs stand apart in the source and are kept apart here.

T1: untagged PNPase (catalytically active) (M. smegmatis, UniProt A0QVQ5 1-763)
T1 sequence: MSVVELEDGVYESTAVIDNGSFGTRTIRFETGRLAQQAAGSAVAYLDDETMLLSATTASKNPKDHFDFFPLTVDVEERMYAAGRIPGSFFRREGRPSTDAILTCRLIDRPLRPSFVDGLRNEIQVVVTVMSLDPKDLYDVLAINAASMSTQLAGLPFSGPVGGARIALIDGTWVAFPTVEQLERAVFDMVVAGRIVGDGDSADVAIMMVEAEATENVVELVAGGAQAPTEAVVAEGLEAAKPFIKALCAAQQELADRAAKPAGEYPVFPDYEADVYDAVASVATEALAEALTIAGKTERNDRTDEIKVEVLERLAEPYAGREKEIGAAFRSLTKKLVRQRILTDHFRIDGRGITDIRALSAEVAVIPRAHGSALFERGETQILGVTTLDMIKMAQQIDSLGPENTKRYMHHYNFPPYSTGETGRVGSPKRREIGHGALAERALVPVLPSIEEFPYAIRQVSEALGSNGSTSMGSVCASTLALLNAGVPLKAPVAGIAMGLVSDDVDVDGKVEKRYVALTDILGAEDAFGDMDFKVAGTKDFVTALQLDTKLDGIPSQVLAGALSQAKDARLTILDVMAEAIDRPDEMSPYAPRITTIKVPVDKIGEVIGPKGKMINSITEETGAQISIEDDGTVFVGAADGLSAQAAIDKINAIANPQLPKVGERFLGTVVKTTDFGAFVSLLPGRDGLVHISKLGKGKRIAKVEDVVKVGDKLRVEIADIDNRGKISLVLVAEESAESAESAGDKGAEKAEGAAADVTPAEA

T2: HA-tagged PNPase (catalytically active) (M. smegmatis, UniProt A0QVQ5 1-763)
T2 sequence: T1 sequence

B1: HA-tagged RNase J (catalytically active) (enzyme)
chain: MSAELAPPPPLAPGGLRVTALGGISEIGRNMTVFEHLGRLLIVDCGVLFPGHDEPGVDLILPDLRHIEDRLDEIEALVVTHAHEDHIGAIPFLLKLRPDIPVVGSKFTIALVREKCREHRLKPKFVEVAERQSSQHGVFECEYFAVNHSIPGCLAVAIHTGAGTVLHTGDIKLDQLPLDGRPTDLPGMSRLGDAGVDLFLCDSTNSEHPGVSPSESEVGPTLHRLIRGAEGRVIVACFASNVDRVQQIIDAAVALGRRVSFVGRSMVRNMGIARELGYLKVDDSDILDIAAAEMMPPDRVVLITTGTQGEPMAALSRMSRGEHRSITLTSGDLIILSSSLIPGNEEAVYGVIDSLSKIGARVVTNAQARVHVSGHAYAGELLFLYNGVRPRNVMPVHGTWRHLRANAALAASTGVPPENIVLAENGVSVDLVAGRASISGAVTVGKMFVDGLITGDVGDATLGERLILSSGFVSITVVVHRGTGRPAGPAHLISRGFSEDPKALEPVAQKVERELEALAADNVTDPTRIAQAVRRTVGKWVGETYRRQPMIVPTVIEI
B2: untagged RNase J (catalytically active) (enzyme)
chain: B1 chain
B3: catalytically dead RNase E C-terminal IDR deletion (retaining AA 2-823), N-terminal 6x-His and FLAG tagged (domain or fragment)
chain: AEDAHTEDLSTQTPQQEGLPERLRVHSLARVLGTTSRRVLDALAEFDGRQRSAHSTVDKADAERVRAALTESPAAETPPEEAPAAETPVADLVVVQAEQVEVVTVSEAGPAEPAEPAEPEAPAAEAEAEAETEVADEAETPEPTFRGAVLVGDEPESRLILEHANIPPARETQTERPDYLPLFVAPQPVSFEPAVVDDEDEDDDTETGAESDFDSGADSDSDDDQADRPRRRRRGRRGRGRGRGEQNDDATSDADTDSTEDQTDGDEQESGEDSDDSGDEDSTTTEGGTRRRRRRRRRKSGSGDSDDAVSPDDPPNTVVHERAPRTERSDKSDDSEIQGISGSTRLEAKRQRRRDGRDAGRRRPPILSEAEFLARREAVERTMIVRDKVRTEPPHEGARYTQIAVLEDGVVVEHFVTSAASASLVGNIYLGIVQNVLPSMEAAFVDIGRGRNGVLYAGEVNWEAAGLGGQNRKIEQALKPGDYVVVQVSKDPVGHKGARLTTQVSLAGRYLVYVPGASSTGISRKLPDTERQRLKEILREVVPSDAGVIIRTASEGVKEEDIRSDVERLQKRWSEIEAKAAEVTEKKAGAAVALYEEPDVLVKVIRDLFNEDFSSLIVSGDEAWNTINSYVEAVAPDLMPRLTKYEPAGPDAPDVFAVHRIDEQLAKAMDRKVWLPSGGTLVIDRTEAMTVVRVNTGKFTGSGGNLEQTVTRNNLEAAEEIVRQLRLRDIGGIVVIRFIDMVLESNRDLVLRRLTEALARDRTRHQVSEVTSLGLVQLTRKRLGTGLVEAFSTACTHCGGRGIVLHGDPIDSASSNGGRKSD
B4: catalytically dead full-length RNase E (D694R, D738R), N-terminal 6x-His and FLAG tagged (enzyme)
chain: MAEDAHTEDLSTQTPQQEGLPERLRVHSLARVLGTTSRRVLDALAEFDGRQRSAHSTVDKADAERVRAALTESPAAETPPEEAPAAETPVADLVVVQAEQVEVVTVSEAGPAEPAEPAEPEAPAAEAEAEAETEVADEAETPEPTFRGAVLVGDEPESRLILEHANIPPARETQTERPDYLPLFVAPQPVSFEPAVVDDEDEDDDTETGAESDFDSGADSDSDDDQADRPRRRRRGRRGRGRGRGEQNDDATSDADTDSTEDQTDGDEQESGEDSDDSGDEDSTTTEGGTRRRRRRRRRKSGSGDSDDAVSPDDPPNTVVHERAPRTERSDKSDDSEIQGISGSTRLEAKRQRRRDGRDAGRRRPPILSEAEFLARREAVERTMIVRDKVRTEPPHEGARYTQIAVLEDGVVVEHFVTSAASASLVGNIYLGIVQNVLPSMEAAFVDIGRGRNGVLYAGEVNWEAAGLGGQNRKIEQALKPGDYVVVQVSKDPVGHKGARLTTQVSLAGRYLVYVPGASSTGISRKLPDTERQRLKEILREVVPSDAGVIIRTASEGVKEEDIRSDVERLQKRWSEIEAKAAEVTEKKAGAAVALYEEPDVLVKVIRDLFNEDFSSLIVSGDEAWNTINSYVEAVAPDLMPRLTKYEPAGPDAPDVFAVHRIDEQLAKAMDRKVWLPSGGTLVIDRTEAMTVVRVNTGKFTGSGGNLEQTVTRNNLEAAEEIVRQLRLRDIGGIVVIRFIDMVLESNRDLVLRRLTEALARDRTRHQVSEVTSLGLVQLTRKRLGTGLVEAFSTACTHCGGRGIVLHGDPIDSASSNGGRKSDSSGGGGSGGGRRGKRGKKGAARTEEVHVAKVPDHTPGEHPMFKAMAAANGKHEGDEDHEDHEDHETAEDTTAAEVRDDTRDEHDADERAHVVTAAVGAAGDEDLDDSDEDSDLDSDEESDDESDEDEIELDDDEDELDEDIEVIGDSDDSDDSDDSDEDDDSDDSDDDSDEDEDSDSDEDEEPVREVYEPPVTAPRARVRRRAAARPAGPPSHD
B5: catalytically dead RNase E N-terminal IDR deletion (retaining AA 330-1037), N-terminal 6x-His and FLAG tagged (domain or fragment)
chain: SDKSDDSEIQGISGSTRLEAKRQRRRDGRDAGRRRPPILSEAEFLARREAVERTMIVRDKVRTEPPHEGARYTQIAVLEDGVVVEHFVTSAASASLVGNIYLGIVQNVLPSMEAAFVDIGRGRNGVLYAGEVNWEAAGLGGQNRKIEQALKPGDYVVVQVSKDPVGHKGARLTTQVSLAGRYLVYVPGASSTGISRKLPDTERQRLKEILREVVPSDAGVIIRTASEGVKEEDIRSDVERLQKRWSEIEAKAAEVTEKKAGAAVALYEEPDVLVKVIRDLFNEDFSSLIVSGDEAWNTINSYVEAVAPDLMPRLTKYEPAGPDAPDVFAVHRIDEQLAKAMDRKVWLPSGGTLVIDRTEAMTVVRVNTGKFTGSGGNLEQTVTRNNLEAAEEIVRQLRLRDIGGIVVIRFIDMVLESNRDLVLRRLTEALARDRTRHQVSEVTSLGLVQLTRKRLGTGLVEAFSTACTHCGGRGIVLHGDPIDSASSNGGRKSDSSGGGGSGGGRRGKRGKKGAARTEEVHVAKVPDHTPGEHPMFKAMAAANGKHEGDEDHEDHEDHETAEDTTAAEVRDDTRDEHDADERAHVVTAAVGAAGDEDLDDSDEDSDLDSDEESDDESDEDEIELDDDEDELDEDIEVIGDSDDSDDSDDSDEDDDSDDSDDDSDEDEDSDSDEDEEPVREVYEPPVTAPRARVRRRAAARPAGPPSHD

Experiments:
[1] = target: T1, untagged PNPase (catalytically active); assay: co-IP
[2] = target: T2, HA-tagged PNPase (catalytically active); assay: co-IP
[3] = target: the molecule itself; assay: SEC
[4] = target: T2, HA-tagged PNPase (catalytically active); assay: co-IP; remark: listed apart in the source

| Binder | stoichiometry N [3] | further results |
| --- | --- | --- |
| B1 | – | binding result [1]: binds |
| B2 | – | binding result [2]: binds |
| B3 | 2 and 4 | – |
| B4 | 4 | – |
| B5 | 2 and 4 | binding result [4]: binds |
